# According to US20090227507A1, “Angiotensin (1-7) Dosage Forms and Uses Thereof” (UNIVERSITY OF SOUTHERN CALIFORNIA, priority 2008, published 2009):
# Assay: Hematology profile (CBC with differential, platelet count) in healthy men;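 for Platelet Count, Median Change from Baseline: Thousands of platelets per mm³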;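 for Platelet Count, Median: Thousands of platelets per mm³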
# Type: in vivo, human
# Details: for number of various white blood cell types in peripheral blood above baseline levels: human administration
# Method: Pharmacological Effect: The following evaluations (under efficacy and safety in the protocol) were performed: • Effects on the number of mature blood cells: • 1. CBC (with differential), platelet count, reticulocyte count. • Effects on early hematopoietic progenitor cells and mature lymphocyte subsets in the periphery: • 1. Flow cytometry to evaluate frequency of peripheral blood progenitor cells (eg, CD34^+) and lymphocyte subsets (eg, CD3, CD4, CD8) in peripheral blood. • 2. Collection of blood for later possible culture for progenitor cells (eg, colony forming units-granulocyte/macrophage [CFU-GM]) to evaluate potential effects on CD34^+ hematopoietic progenitor cells in peripheral blood. • 3.
# The effect of USB003 on the number of mature blood cells was assessed by the complete blood count with differential, platelet and reticulocyte counts. The effects on early hematopoietic progenitor cells and mature lymphocyte subsets in the periphery were assessed by flow cytometry. In addition, blood was collected and processed to enable culture of progenitors at a later time.
# Red blood cell (RBC) count, RBC indices, white blood cell count (WBC) with differential, reticulocyte count, platelet count, hemoglobin (Hb), hematocrit (Hct), plasma hemoglobin, peripheral flow cytometry, including CD34^+, flow cytometry for enumeration of CD3, CD4, and CD8 lymphocytes, and culture for progenitor cells in peripheral blood including colony-forming units-granulocyte/macrophage (CFU-GM).
# [1] = 300 μg/kg, N = 8, baseline to Day 8
# [2] = 300 μg/kg, N = 8, baseline to Day 20
# [3] = 300 μg/kg, Study Termination Visit Day 19
# [4] = 300 μg/kg, repeat test 10 days later
# [5] = Subject 042, 300 μg/kg, Day 29 U (unscheduled)
substance,measurement,setting,value
Asp-Arg-Val-Tyr-Ile-His-Pro [USB003],"Eosinophils shift L-N, number of subjects",[1],— (“—” = 0)
same,"Eosinophils shift N-H, number of subjects",[1],— (“—” = 0)
same,"Eosinophils shift N-L, number of subjects",[1],— (“—” = 0)
same,"Hematocrit shift H-N, number of subjects",[1],— (“—” = 0)
same,"Hematocrit shift L-N, number of subjects",[1],— (“—” = 0)
same,"Hematocrit shift N-H, number of subjects",[1],— (“—” = 0)
same,"Hematocrit shift N-L, number of subjects",[1],2
same,"Hemoglobin shift H-N, number of subjects",[1],— (“—” = 0)
same,"Hemoglobin shift L-N, number of subjects",[1],— (“—” = 0)
same,"Hemoglobin shift N-H, number of subjects",[1],— (“—” = 0)
same,"Hemoglobin shift N-L, number of subjects",[1],2
same,"Lymphocytes shift H-N, number of subjects",[1],— (“—” = 0)
same,"Lymphocytes shift L-N, number of subjects",[1],— (“—” = 0)
same,"Lymphocytes shift N-H, number of subjects",[1],— (“—” = 0)
same,"Lymphocytes shift N-L, number of subjects",[1],— (“—” = 0)
same,"Plasma Hemoglobin shift H-N, number of subjects",[1],— (“—” = 0)
same,"Plasma Hemoglobin shift L-N, number of subjects",[1],— (“—” = 0)
same,"Plasma Hemoglobin shift N-H, number of subjects",[1],— (“—” = 0)
same,"Plasma Hemoglobin shift N-L, number of subjects",[1],— (“—” = 0)
same,"Platelet Count shift H-N, number of subjects",[1],— (“—” = 0)
same,"Platelet Count shift L-N, number of subjects",[1],1
same,"Platelet Count shift N-H, number of subjects",[1],— (“—” = 0)
same,"Platelet Count shift N-L, number of subjects",[1],— (“—” = 0)
same,"RBC shift H-N, number of subjects",[1],— (“—” = 0)
same,"RBC shift L-N, number of subjects",[1],— (“—” = 0)
same,"RBC shift N-H, number of subjects",[1],— (“—” = 0)
same,"RBC shift N-L, number of subjects",[1],1
same,"Segmented Neutrophils shift H-N, number of subjects",[1],— (“—” = 0)
same,"Segmented Neutrophils shift L-N, number of subjects",[1],— (“—” = 0)
same,"Segmented Neutrophils shift N-H, number of subjects",[1],— (“—” = 0)
same,"Segmented Neutrophils shift N-L, number of subjects",[1],— (“—” = 0)
same,"Absolute Eosinophils shift H-N, number of subjects",[2],— (“—” = 0)
same,"Absolute Eosinophils shift L-N, number of subjects",[2],— (“—” = 0)
same,"Absolute Eosinophils shift N-H, number of subjects",[2],— (“—” = 0)
same,"Absolute Eosinophils shift N-L, number of subjects",[2],— (“—” = 0)
same,"Absolute Neutrophils shift H-N, number of subjects",[2],— (“—” = 0)
same,"Absolute Neutrophils shift L-N, number of subjects",[2],— (“—” = 0)
same,"Absolute Neutrophils shift N-H, number of subjects",[2],1
same,"Absolute Neutrophils shift N-L, number of subjects",[2],— (“—” = 0)
same,"Absolute Reticulocytes shift H-N, number of subjects",[2],— (“—” = 0)
same,"Absolute Reticulocytes shift L-N, number of subjects",[2],— (“—” = 0)
same,"Absolute Reticulocytes shift N-H, number of subjects",[2],— (“—” = 0)
same,"Absolute Reticulocytes shift N-L, number of subjects",[2],— (“—” = 0)
same,"Eosinophils shift H-N, number of subjects",[2],1
same,"Eosinophils shift L-N, number of subjects",[2],— (“—” = 0)
same,"Eosinophils shift N-H, number of subjects",[2],2
same,"Eosinophils shift N-L, number of subjects",[2],— (“—” = 0)
same,"Hematocrit shift H-N, number of subjects",[2],— (“—” = 0)
same,"Hematocrit shift L-N, number of subjects",[2],— (“—” = 0)
same,"Hematocrit shift N-H, number of subjects",[2],— (“—” = 0)
same,"Hematocrit shift N-L, number of subjects",[2],4
same,"Hemoglobin shift H-N, number of subjects",[2],— (“—” = 0)
same,"Hemoglobin shift L-N, number of subjects",[2],— (“—” = 0)
same,"Hemoglobin shift N-H, number of subjects",[2],— (“—” = 0)
same,"Hemoglobin shift N-L, number of subjects",[2],3
same,"Lymphocytes shift H-N, number of subjects",[2],1
same,"Lymphocytes shift L-N, number of subjects",[2],— (“—” = 0)
same,"Lymphocytes shift N-H, number of subjects",[2],— (“—” = 0)
same,"Lymphocytes shift N-L, number of subjects",[2],— (“—” = 0)
same,"Monocytes shift H-N, number of subjects",[2],— (“—” = 0)
same,"Monocytes shift L-N, number of subjects",[2],— (“—” = 0)
same,"Monocytes shift N-H, number of subjects",[2],— (“—” = 0)
same,"Monocytes shift N-L, number of subjects",[2],— (“—” = 0)
same,"Plasma Hemoglobin shift H-N, number of subjects",[2],— (“—” = 0)
same,"Plasma Hemoglobin shift L-N, number of subjects",[2],— (“—” = 0)
same,"Plasma Hemoglobin shift N-H, number of subjects",[2],1
same,"Plasma Hemoglobin shift N-L, number of subjects",[2],— (“—” = 0)
same,"Platelet Count shift H-N, number of subjects",[2],— (“—” = 0)
same,"Platelet Count shift L-N, number of subjects",[2],1
same,"Platelet Count shift N-H, number of subjects",[2],— (“—” = 0)
same,"Platelet Count shift N-L, number of subjects",[2],— (“—” = 0)
same,"RBC shift H-N, number of subjects",[2],— (“—” = 0)
same,"RBC shift L-N, number of subjects",[2],— (“—” = 0)
same,"RBC shift N-H, number of subjects",[2],— (“—” = 0)
same,"RBC shift N-L, number of subjects",[2],2
same,"RDW shift H-N, number of subjects",[2],— (“—” = 0)
same,"RDW shift L-N, number of subjects",[2],— (“—” = 0)
same,"RDW shift N-H, number of subjects",[2],— (“—” = 0)
same,"RDW shift N-L, number of subjects",[2],— (“—” = 0)
same,"Segmented Neutrophils shift H-N, number of subjects",[2],— (“—” = 0)
same,"Segmented Neutrophils shift L-N, number of subjects",[2],— (“—” = 0)
same,"Segmented Neutrophils shift N-H, number of subjects",[2],2
same,"Segmented Neutrophils shift N-L, number of subjects",[2],— (“—” = 0)
same,"WBC shift H-N, number of subjects",[2],— (“—” = 0)
same,"WBC shift L-N, number of subjects",[2],— (“—” = 0)
same,"WBC shift N-H, number of subjects",[2],1
same,"WBC shift N-L, number of subjects",[2],— (“—” = 0)
same,"Absolute Neutrophils, Median","300 μg/kg, Baseline",2.85 thousands/mm^3
same,"Hematocrit, Median","300 μg/kg, Baseline",45.25%
same,"Hemoglobin, Median","300 μg/kg, Baseline",15.60 g/dL
same,"Lymphocytes, Median","300 μg/kg, Baseline",33.60%
same,"Platelet Count, Median","300 μg/kg, Baseline",216.0 thousands/mm^3
same,"WBC, Median","300 μg/kg, Baseline",5.15 thousands/mm^3
same,"Absolute Neutrophils, Median","300 μg/kg, Day 8",2.95 thousands/mm^3
same,"Absolute Neutrophils, Median Change from Baseline","300 μg/kg, Day 8",−0.10 thousands/mm^3
same,"Hematocrit, Median","300 μg/kg, Day 8",42.30%
same,"Hematocrit, Median Change from Baseline","300 μg/kg, Day 8",−2.10%
same,"Hemoglobin, Median","300 μg/kg, Day 8",14.40 g/dL
same,"Hemoglobin, Median Change from Baseline","300 μg/kg, Day 8",-1.15 g/dL
same,"Lymphocytes, Median","300 μg/kg, Day 8",34.50%
same,"Lymphocytes, Median Change from Baseline","300 μg/kg, Day 8",1.00%
same,"Platelet Count, Median","300 μg/kg, Day 8",243.0 thousands/mm^3
same,"Platelet Count, Median Change from Baseline","300 μg/kg, Day 8",22.5 thousands/mm^3
same,"WBC, Median","300 μg/kg, Day 8",5.65 thousands/mm^3
same,"WBC, Median Change from Baseline","300 μg/kg, Day 8",−0.30 thousands/mm^3
same,"Absolute Neutrophils, Median","300 μg/kg, Day 20",3.80 thousands/mm^3
same,"Absolute Neutrophils, Median Change from Baseline","300 μg/kg, Day 20",0.75 thousands/mm^3
same,"Hematocrit, Median","300 μg/kg, Day 20",40.45%
same,"Hematocrit, Median Change from Baseline","300 μg/kg, Day 20",−3.45%
same,"Hemoglobin, Median","300 μg/kg, Day 20",14.0 g/dL
same,"Hemoglobin, Median Change from Baseline","300 μg/kg, Day 20",-1.30 g/dL
same,"Lymphocytes, Median","300 μg/kg, Day 20",29.75%
same,"Lymphocytes, Median Change from Baseline","300 μg/kg, Day 20",−3.90%
same,"Platelet Count, Median","300 μg/kg, Day 20",243.5 thousands/mm^3
same,"Platelet Count, Median Change from Baseline","300 μg/kg, Day 20",14 thousands/mm^3
same,"WBC, Median","300 μg/kg, Day 20",6.55 thousands/mm^3
same,"WBC, Median Change from Baseline","300 μg/kg, Day 20",1.30 thousands/mm^3
same,"WBC value, Subject 042",[3],"13,400 cells/mm^3"
same,"segmented neutrophils, Subject 042",[3],84.9%
same,"WBC count, Subject 042",[4],"8,900 cells/mm^3"
same,"segmented neutrophils, Subject 042",[4],73.5%
same,total WBC and neutrophil concentrations,200 and 300 μg/kg SC,increases
same,WBC Significance,"Subject 027, 200 μg/kg, Day 11",CS AE
same,WBC Value,"Subject 027, 200 μg/kg, Day 11",12.7 10^3/mm³
same,WBC High/Low Normal/Abnormal,"Subject 027, 200 μg/kg, Day 14",N
same,WBC Value,"Subject 027, 200 μg/kg, Day 14",7.3 10^3/mm³
same,Segmented Neutrophils Significance,"Subject 042, 300 μg/kg, Day 19",CS AE
same,Segmented Neutrophils Value,"Subject 042, 300 μg/kg, Day 19",84.9%
same,WBC Significance,"Subject 042, 300 μg/kg, Day 19",CS AE
same,WBC Value,"Subject 042, 300 μg/kg, Day 19",13.4 10^3/mm³
same,Segmented Neutrophils Significance,[5],NCS
same,Segmented Neutrophils Value,[5],73.5%
same,WBC High/Low Normal/Abnormal,[5],N
same,WBC Value,[5],8.9 10^3/mm³
same,"peripheral blood concentrations of WBC, neutrophils, CD3, CD34+, CD4 and CD8",during the administration of USB003,elevations
same,time for all hematological parameters to return to baseline,following discontinuation of USB003 administration,≤ 12 days
same,number of various white blood cell types in peripheral blood above baseline levels,doses of 300 μg/kg or more,increasing the number of various white blood cell types
same,number of various white blood cell types in peripheral blood above baseline levels,lower doses (200 μg/kg),did not provide such an increase over baseline
